Data: FireProtDB (doi:10.1016/s0022-2836(99)80018-7)

B1: Ribonuclease, P00648 (parent)
chain: MMKMEGIALKKRLSWISVCLLVLVSAAGMLFSTAAKTETSSHKAHTEAQVINTFDGVADYLQTYHKLPDNYITKSEAQALGWVASKGNLADVAPGKSIGGDIFSNREGKLPGKSGRTWREADINYTSGFRNSDRILYSSDWLIYKTTDHYQTFTKIR

Variants of: B1
Conditions: Bacillus amyloliquefaciens; pH 6.3; 25 °C; Urea; Fluorescence; MES 50 mM; reversible: yes; structure 1BNI; whole UniProt chain shown

Variant	ddG of mutation (higher = less stable)	denaturant m value	denaturant midpoint (higher = more stable)	unfolding free energy
MMKMEGIALKKRLSWISVCLLVLVSAAGMLFSTAAKTETSSHKAHTEAQVINTFDGVADYLQTYHKLPDNYITKSEAQALGWVASKGNLADVAPGKSIGGDIFSNREGKLPGKSGRTWREADINYTSGFRNSDRILYSSDWLIYKTTDHYQTFTKIA [R157A]	0.46 kcal/mol	2.26 kcal/mol/M	4.37 M	9.47 kcal/mol
MMKMEGIALKKRLSWISVCLLVLVSAAGMLFSTAAKTETSSHKAHTEAQVINTFAGVAAYLQTYHKLPDNYITKSEAQALGWVASKGNLADVAPGKSIGGDIFSNREGKLPGKSGRTWREADINYTSGFRNSDRILYSSDWLIYKTTDHYQTFTKIA [D55A D59A R157A]	-0.11 kcal/mol	2.16 kcal/mol/M	4.63 M	10 kcal/mol
MMKMEGIALKKRLSWISVCLLVLVSAAGMLFSTAAKTETSSHKAHTEAQVINTFDGVAAYLQTYHKLPDNYITKSEAQALGWVASKGNLADVAPGKSIGGDIFSNREGKLPGKSGRTWREADINYTSGFRNSDRILYSSDWLIYKTTDHYQTFTKIA [D59A R157A]	-0.45 kcal/mol	2.14 kcal/mol/M	4.78 M	10.4 kcal/mol
MMKMEGIALKKRLSWISVCLLVLVSAAGMLFSTAAKTETSSHKAHTEAQVINTFAGVAAYLQTYHKLPDNYITKSEAQALGWVASKGNLADVAPGKSIGGDIFSNREGKLPGKSGRTWREADINYTSGFRNSDRILYSSDWLIYKTTDHYQTFTKIR [D55A D59A]	0.89 kcal/mol	1.98 kcal/mol/M	4.16 M	9.04 kcal/mol
MMKMEGIALKKRLSWISVCLLVLVSAAGMLFSTAAKTETSSHKAHTEAQVINTFDGVAAYLQTYHKLPDNYITKSEAQALGWVASKGNLADVAPGKSIGGDIFSNREGKLPGKSGRTWREADINYTSGFRNSDRILYSSDWLIYKTTDHYQTFTKIR [D59A]	0.34 kcal/mol	2.12 kcal/mol/M	4.42 M	9.59 kcal/mol
MMKMEGIALKKRLSWISVCLLVLVSAAGMLFSTAAKTETSSHKAHTEAQVINTFAGVADYLQTYHKLPDNYITKSEAQALGWVASKGNLADVAPGKSIGGDIFSNREGKLPGKSGRTWREADINYTSGFRNSDRILYSSDWLIYKTTDHYQTFTKIR [D55A]	0.99 kcal/mol	2.15 kcal/mol/M	4.12 M	8.94 kcal/mol
MMKMEGIALKKRLSWISVCLLVLVSAAGMLFSTAAKTETSSHKAHTEAQVINTFAGVADYLQTYHKLPDNYITKSEAQALGWVASKGNLADVAPGKSIGGDIFSNREGKLPGKSGRTWREADINYTSGFRNSDRILYSSDWLIYKTTDHYQTFTKIA [D55A R157A]	0.47 kcal/mol	1.96 kcal/mol/M	4.36 M	9.46 kcal/mol
